{"source": "patent US20230310650A1", "target": "human extracellular signal-regulated kinase 1/2 (Erk) (human) (UniProt P27361)", "sequence (P27361 2-379 limits assumed, chain 1 of 2)": "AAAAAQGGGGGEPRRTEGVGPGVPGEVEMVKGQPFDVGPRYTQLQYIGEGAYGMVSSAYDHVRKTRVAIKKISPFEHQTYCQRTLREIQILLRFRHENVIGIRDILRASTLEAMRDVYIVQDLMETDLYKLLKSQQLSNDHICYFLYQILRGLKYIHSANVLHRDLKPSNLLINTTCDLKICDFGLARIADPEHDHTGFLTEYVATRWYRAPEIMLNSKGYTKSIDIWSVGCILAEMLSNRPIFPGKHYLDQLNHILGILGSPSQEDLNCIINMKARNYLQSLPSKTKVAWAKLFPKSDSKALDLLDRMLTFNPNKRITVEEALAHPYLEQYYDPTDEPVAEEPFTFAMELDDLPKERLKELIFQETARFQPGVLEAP", "sequence (P28482 2-360 limits assumed, chain 2 of 2, further chain)": "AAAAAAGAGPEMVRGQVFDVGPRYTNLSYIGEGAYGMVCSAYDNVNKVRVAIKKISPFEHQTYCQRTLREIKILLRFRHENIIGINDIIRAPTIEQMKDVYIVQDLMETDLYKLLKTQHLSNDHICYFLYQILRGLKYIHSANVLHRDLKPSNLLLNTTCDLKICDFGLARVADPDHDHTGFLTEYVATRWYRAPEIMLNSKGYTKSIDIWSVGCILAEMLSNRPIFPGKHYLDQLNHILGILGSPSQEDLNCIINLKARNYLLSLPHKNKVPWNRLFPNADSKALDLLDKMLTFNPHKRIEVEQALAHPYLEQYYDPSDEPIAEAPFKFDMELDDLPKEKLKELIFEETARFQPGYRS", "assay": "cell-based or functional assay", "data": [{"substance": "MAPK phosphothreonine lyase OspF of Shigella flexneri, expressed from pGB4 as a fusion to TEM-1 (from UniProt Q8VSP9 1-239)", "values": [{"measurement": "decrease in p-Erk percentages of live t-Erk positive T cells (flow cytometry) after infection with E. coli TOP10 pGB4", "value": "> 60", "unit": "%"}]}]}
